Assay [1] addresses p9 p9 (Equine infectious anemia virus) (UniProt P69730). Briefly: SPR. To be noted: cited from earlier work.
The target of assay [2] is T1, Gal4 DBD-HIV-1 p6 (wild type), P12493.
T1 chain: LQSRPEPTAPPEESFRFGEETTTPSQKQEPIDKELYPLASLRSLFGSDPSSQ
Nature of the assay: yeast two-hybrid, β-galactosidase assay. The note with it: chain shown with the change;; parent: est. 0.85; read off a plot.

The target in assay [3] is T2, GAL4 DBD-p9 EIAVUK, P69732.
T2 chain: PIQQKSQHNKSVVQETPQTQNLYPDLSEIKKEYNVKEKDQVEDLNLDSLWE
Nature of the assay: yeast two-hybrid, β-galactosidase assay. The note with it: chain shown with the change;; parent: est. 1.2; read off a plot.

For orientation: Kd means the equilibrium constant for the complex coming apart. For the molecule “ALIX deleted from PRR (from UniProt Q8WUM4)”, the dissociation constant Kd in assay [1] was 1200 nM.

B1: Gal4 AD-ALIXΔ541–582, Q8WUM4-1 V509A (protein)
chain: MATFISVQLKKTSEVDLAKPLVKFIQQTYPSGGEEQAQYCRAAEELSKLRRAAVGRPLDKHEGALETLLRYYDQICSIEPKFPFSENQICLTFTWKDAFDKGSLFGGSVKLALASLGYEKSCVLFNCAALASQIAAEQNLDNDEGLKIAAKHYQFASGAFLHIKETVLSALSREPTVDISPDTVGTLSLIMLAQAQEVFFLKATRDKMKDAIIAKLANQAADYFGDAFKQCQYKDTLPKEVFPVLAAKHCIMQANAEYHQSILAKQQKKFGEEIARLQHAAELIKTVASRYDEYVNVKDFSDKINRALAAAKKDNDFIYHDRVPDLKDLDPIGKATLVKSTPVNVPISQKFTDLFEKMVPVSVQQSLAAYNQRKADLVNRSIAQMREATTLANGVLASLNLPAAIEDVSGDTVPQSILTKSRSVIEQGGIQTVDQLIKELPELLQRNREILDESLRLLDEEEATDNDLRAKFKERWQRTPSNELYKPLRAEGTNFRTVLDKAVQADGQAKECYQSHRDTIVLLCKPEPELNAAIPSANPAKTMQGSEVVNVLKSLLSNLDEVKKEREGLENDLKSVNFDMTSKFLTALAQDGVINEEALSVTELDRVYGGLTTKVQESLKKQEGLLKNIQVSHQEFSKMKQSNNEANLREEVLKNLATAYDNFVELVANLKEGTKFYNELTEILVRFQNKCSDIVFARKTERDELLKDLQQSIAREPSAPSIPTPAYQSSPAGGHAPTPPTPAPRTMPPTKPQPPARPPPPVLPANRAPSATAPSPVGAGTAAPAPSQTPGSAPPPQAQGPPYPTYPGYPGYCQMPMPMGYNPYAYGQYNMPYPPVYHQSPGQAPYPGPQQPSYPFPQPPQQSYYPQQ
Consider B1, for which the other: relative β-Gal activity (relative to ALIX wild type = 1) in assay [2] was determined as 0.05; in assay [3], 1.1.
